Source: patent publication US20230193513A1 (TWIST BIOSCIENCE, published 2023)
Changes are numbered by the printed parent chain. One block for each binder: values may come before it.

How the values were obtained:
Test in all cases: cell-based or functional assay
[1] = biological target: T1, glucagon-like peptide-1 receptor (GLP1R) (Homo sapiens (Human), UniProt P43220 24-463)
[2] = biological target: T1, glucagon-like peptide-1 receptor (GLP1R); remark: listed apart in the source
[3] = biological target: T1, glucagon-like peptide-1 receptor (GLP1R); remark: listed apart in the source
[4] = biological target: T1, glucagon-like peptide-1 receptor (GLP1R); remark: listed apart in the source

T1 sequence (P43220 24-463): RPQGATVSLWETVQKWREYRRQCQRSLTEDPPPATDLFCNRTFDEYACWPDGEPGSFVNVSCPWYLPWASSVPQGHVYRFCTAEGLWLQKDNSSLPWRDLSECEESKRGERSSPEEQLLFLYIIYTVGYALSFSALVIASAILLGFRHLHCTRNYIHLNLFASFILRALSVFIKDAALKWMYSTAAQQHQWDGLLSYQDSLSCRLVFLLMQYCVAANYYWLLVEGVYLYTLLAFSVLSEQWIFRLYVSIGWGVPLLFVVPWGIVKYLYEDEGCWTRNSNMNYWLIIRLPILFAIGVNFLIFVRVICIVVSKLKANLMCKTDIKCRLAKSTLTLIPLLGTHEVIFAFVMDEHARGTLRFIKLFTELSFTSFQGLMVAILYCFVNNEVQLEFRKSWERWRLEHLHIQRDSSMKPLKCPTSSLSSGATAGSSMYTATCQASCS

- EC50 (nM) of GLP1 (7-36) in the cAMP assay after 100 nM IgG [1]: 0.128 nM
B1: GLP1R-243 (antibody, human IgG2, lambda, V domains shown)
VH: QVQLVQSGAEVKKPGSSVKVSCKASGGTFSTYGINWVRQAPGQGLEWMGGIIPIFGTANYAQKFQGRVTITADESTSTAYMELSSLRSEDTAVYYCARANQHFFGKGDNLAARDFINWLIQTKITDGSNPGYHYYGMDVWGQGTLVTVSS
VL: QSVLTQPPSVSAAPGQKVTISCSGSRSNIGKNYVSWYQQLPGTAPKLLIYENNERPSGIPDRFSGSKSGTSATLGITGLQTGDEADYYCSSYTTSNTQVFGGGTKLTVLG

- EC50 (nM) of GLP1 (7-36) in the cAMP assay after 100 nM IgG [1]: 0.154 nM
B2: GLP1R-244 (antibody, human IgG2, lambda, V domains shown)
VH: QVQLVQSGAEVKKPGSSVKVSCKASGGTFSSYAISWVRQAPGQGLEWMGGIIPIFGTANYAQKFQGRVTITADESTSTAYMELSSLRSEDTAVYYCARANQHFAATGAGEGQAAKEFIAWLVKGRVEIGYHYYGMDVWGQGTLVTVSS
VL: QSVLTQPPSVSAAPGQKVTISCSGSSSNIGNNVVSWYQQLPGTAPKLLIYDNDKRRSGIPDRFSGSKSGTSATLGITGLQTGDEADYYCGSWDTSLSVWVFGGGTKLTVLG

- EC50 (nM) of GLP1 (7-36) in the cAMP assay after 100 nM IgG [1]: 0.0654 nM
B3: GLP1R-240 (antibody, human IgG2, lambda)
heavy: QVQLVQSGAEVKKPGSSVKVSCKASGGTFNNYGISWVRQAPGQGLEWMGGIIPVFGTANYAQKFQGRVTITADESTSTAYMELSSLRSEDTAVYYCARDMYYDFFGLGTFTSDVSSYLEGQAAKEFIAWLVKGVSPEVVPADDAFDIWGQGTLVTVSSASASTKGPSVFPLAPCSRSTSESTAALGCLVKDYFPEPVTVSWNSGALTSGVHTFPAVLQSSGLYSLSSVVTVPSSNFGTQTYTCNVDHKPSNTKVDKTVERKCCVECPPCPAPPVAGPSVFLFPPKPKDTLMISRTPEVTCVVVDVSHEDPEVQFNWYVDGVEVHNAKTKPREEQFNSTFRVVSVLTVVHQDWLNGKEYKCKVSNKGLPAPIEKTISKTKGQPREPQVYTLPPSREEMTKNQVSLTCLVKGFYPSDIAVEWESNGQPENNYKTTPPMLDSDGSFFLYSKLTVDKSRWQQGNVFSCSVMHEALHNHYTQKSLSLSPG
light: QSVLTQPPSVSAAPGQKVTISCSGSSSSIGNNYVSWYQQLPGTAPKLLIYANNKRPSGIPDRFSGSKSGTSATLGITGLQTGDEADYYCATWSSSPRGWVFGGGTKLTVLGQPKAAPSVTLFPPSSEELQANKATLVCLISDFYPGAVTVAWKADSSPVKAGVETTTPSKQSNNKYAASSYLSLTPEQWKSHRSYSCQVTHEGSTVEKTVAPTECS

- EC50 (nM) of GLP1 (7-36) in the cAMP assay after 100 nM IgG [1]: 0.0879 nM
B4: GLP1R-238 (antibody, human IgG2, lambda, V domains shown)
VH: QVQLVQSGAEVKKPGSSVKVSCKASGGSFSSHAISWVRQAPGQGLEWMGGIIPIFGAPNYAQKFQGRVTITADESTSTAYMELSSLRSEDTAVYYCARANQHFSQAGRAARVPGPSSSLGPRGYHYYGMDVWGQGTLVTVSS
VL: QSVLTQPPSVSAAPGQKVTISCSGSTSNIANNYVSWYQQLPGTAPKLLIYANNRRPSGIPDRFSGSKSGTSATLGITGLQTGDEADYYCGAWDVRLDVGVFGGGTKLTVLG

- EC50 (nM) of the IgG as agonist, functional assay on GLP-1R overexpressing cells [2]: 0.842 nM
B5: GLP1R-59-2 (antibody)
chain 1: QVQLVESGGGVVQPGRSLRLSCAASGFTFSNYGMSWVRQAPGKGLEWVAVISYDAGNKYYADSVKGRFTISRDNSKNTLYLQMNSLRAEDTAVYYCARDMYYDFETVVEGIQWYEALKAGKLGEVVPADDAFDIWGQGTLVTVSSASTKGPSVFPLAPCSRSTSESTAALGCLVKDYFPEPVTVSWNSGALTSGVHTFPAVLQSSGLYSLSSVVTVPSSNFGTQTYTCNVDHKPSNTKVDKTVERKCCVECPPCPAPPVAGPSVFLFPPKPKDTLMISRTPEVTCVVVDVSHEDPEVQFNWYVDGVEVHNAKTKPREEQFNSTFRVVSVLTVVHQDWLNGKEYKCKVSNKGLPAPIEKTISKTKGQPREPQVYTLPPSREEMTKNQVSLTCLVKGFYPSDIAVEWESNGQPENNYKTTPPMLDSDGSFFLYSKLTVDKSRWQQGNVFSCSVMHEALHNHYTQKSLSLSPGK
chain 2: HGEGTFTSDVSSYLEEQAAKEFIAWLVKGGGGGGGSGGGGSGGGGSQSALTQPASVSGSPGQSITISCTGTSNDIGTYNYVSWYQQHPGKAPKLMIYDVSGRPSGVSNRFSGSKSGNTASLTISGLQAEDEADYYCSSYTTSSTEVFGGGTKLTVLGQPKAAPSVTLFPPSSEELQANKATLVCLISDFYPGAVTVAWKADSSPVKAGVETTTPSKQSNNKYAASSYLSLTPEQWKSHRSYSCQVTHEGSTVEKTVAPTECS

- EC50 (nM) of GLP1 (7-36) in the cAMP assay after 100 nM IgG [1]: 0.0799 nM
B6: GLP1R-239 (antibody, human IgG2, lambda)
heavy: QVQLVESGGGVVQPGRSLRLSCAASGFDFSNYGMHWVRQAPGKGLEWVADISYEGSNKYYADSVKGRFTISRDNSKNTLYLQMNSLRAEDTAVYYCAKHMSMQSQGLDNLAARDFINWLIQTKITDGFELSRADLVGDAFDVWGQGTLVTVSSASASTKGPSVFPLAPCSRSTSESTAALGCLVKDYFPEPVTVSWNSGALTSGVHTFPAVLQSSGLYSLSSVVTVPSSNFGTQTYTCNVDHKPSNTKVDKTVERKCCVECPPCPAPPVAGPSVFLFPPKPKDTLMISRTPEVTCVVVDVSHEDPEVQFNWYVDGVEVHNAKTKPREEQFNSTFRVVSVLTVVHQDWLNGKEYKCKVSNKGLPAPIEKTISKTKGQPREPQVYTLPPSREEMTKNQVSLTCLVKGFYPSDIAVEWESNGQPENNYKTTPPMLDSDGSFFLYSKLTVDKSRWQQGNVFSCSVMHEALHNHYTQKSLSLSPG
light: QSVLTQPPSVSAAPGQKVTISCSGSTSNIEKNYVSWYQQLPGTAPKLLIYGNDQRPSGIPDRFSGSKSGTSATLGITGLQTGDEADYYCGTWENRLSAVVFGGGTKLTVLGQPKAAPSVTLFPPSSEELQANKATLVCLISDFYPGAVTVAWKADSSPVKAGVETTTPSKQSNNKYAASSYLSLTPEQWKSHRSYSCQVTHEGSTVEKTVAPTECS

- EC50 (nM) of GLP1 (7-36) in the cAMP assay after 100 nM IgG [1]: ~0.0653 nM
B7: GLP1R-242 (antibody, human IgG2, lambda)
heavy: QVQLVQSGAEVKKPGSSVKVSCKASGGTFSSYEISWVRQAPGQGLEWMGGIIPILGIANYAQKFQGRVTITADESTSTAYMELSSLRSEDTAVYYCAKHMSMQADTGTFTSDVSSYLEGQAAKEFIAWLVKGEFSSRADLVGDAFDVWGQGTLVTVSSASASTKGPSVFPLAPCSRSTSESTAALGCLVKDYFPEPVTVSWNSGALTSGVHTFPAVLQSSGLYSLSSVVTVPSSNFGTQTYTCNVDHKPSNTKVDKTVERKCCVECPPCPAPPVAGPSVFLFPPKPKDTLMISRTPEVTCVVVDVSHEDPEVQFNWYVDGVEVHNAKTKPREEQFNSTFRVVSVLTVVHQDWLNGKEYKCKVSNKGLPAPIEKTISKTKGQPREPQVYTLPPSREEMTKNQVSLTCLVKGFYPSDIAVEWESNGQPENNYKTTPPMLDSDGSFFLYSKLTVDKSRWQQGNVFSCSVMHEALHNHYTQKSLSLSPG
light: B6 light with T26S, K31N, Y33D, E93D, R95T, V99G

- EC50 (nM) of GLP1 (7-36) in the cAMP assay after 100 nM IgG [1]: 0.103 nM
- EC50 (nM) of GLP1 (7-36)-induced signaling with GLP1R IgG (+100 nM) [3]: 0.103 nM
- fold difference of the EC50 against no antibody [4]: 1.7 fold
B8: GLP1R-241 (antibody, human IgG2, lambda)
heavy: QVQLVQSGAEVKKPGSSVKVSCKASGGTFSDYAISWVRQAPGQGLEWMGGIIPIFGTTNYAQKFQGRVTITADESTSTAYMELSSLRSEDTAVYYCAKHMSMQGSVAGGTFTSDVSSYLEGQAAKEFIAWLVKGGPSFIRADLVGDAFDVWGQGTLVTVSSASASTKGPSVFPLAPCSRSTSESTAALGCLVKDYFPEPVTVSWNSGALTSGVHTFPAVLQSSGLYSLSSVVTVPSSNFGTQTYTCNVDHKPSNTKVDKTVERKCCVECPPCPAPPVAGPSVFLFPPKPKDTLMISRTPEVTCVVVDVSHEDPEVQFNWYVDGVEVHNAKTKPREEQFNSTFRVVSVLTVVHQDWLNGKEYKCKVSNKGLPAPIEKTISKTKGQPREPQVYTLPPSREEMTKNQVSLTCLVKGFYPSDIAVEWESNGQPENNYKTTPPMLDSDGSFFLYSKLTVDKSRWQQGNVFSCSVMHEALHNHYTQKSLSLSPG
light: B6 light with S25I, T26S, E30G, K31N, G51D, N52D, E93D, R95I, V99A
